Molecular target: T1, His-tagged human leucyl-tRNA synthetase (LRS) (human, UniProt Q9P2J5 1-1176)
T1 construct: leucyl-tRNA synthetase (LRS), human; also called His-LRS; human LRS; source: laboratory stocks; purified
Assay: ELISA; His-tagged human LRS coated on the plate (0.5 ng/ul in 100 mM carbonate buffer, pH 9.6, overnight at 4 °C), blocked with 5% BSA in PBS; GST-tagged human RagD added together with each compound for 3 h; detected with anti-GST and HRP-conjugated secondary antibody, TMB, absorbance at 450 nm
Details: both partners purified

T1 sequence (Q9P2J5 whole entry): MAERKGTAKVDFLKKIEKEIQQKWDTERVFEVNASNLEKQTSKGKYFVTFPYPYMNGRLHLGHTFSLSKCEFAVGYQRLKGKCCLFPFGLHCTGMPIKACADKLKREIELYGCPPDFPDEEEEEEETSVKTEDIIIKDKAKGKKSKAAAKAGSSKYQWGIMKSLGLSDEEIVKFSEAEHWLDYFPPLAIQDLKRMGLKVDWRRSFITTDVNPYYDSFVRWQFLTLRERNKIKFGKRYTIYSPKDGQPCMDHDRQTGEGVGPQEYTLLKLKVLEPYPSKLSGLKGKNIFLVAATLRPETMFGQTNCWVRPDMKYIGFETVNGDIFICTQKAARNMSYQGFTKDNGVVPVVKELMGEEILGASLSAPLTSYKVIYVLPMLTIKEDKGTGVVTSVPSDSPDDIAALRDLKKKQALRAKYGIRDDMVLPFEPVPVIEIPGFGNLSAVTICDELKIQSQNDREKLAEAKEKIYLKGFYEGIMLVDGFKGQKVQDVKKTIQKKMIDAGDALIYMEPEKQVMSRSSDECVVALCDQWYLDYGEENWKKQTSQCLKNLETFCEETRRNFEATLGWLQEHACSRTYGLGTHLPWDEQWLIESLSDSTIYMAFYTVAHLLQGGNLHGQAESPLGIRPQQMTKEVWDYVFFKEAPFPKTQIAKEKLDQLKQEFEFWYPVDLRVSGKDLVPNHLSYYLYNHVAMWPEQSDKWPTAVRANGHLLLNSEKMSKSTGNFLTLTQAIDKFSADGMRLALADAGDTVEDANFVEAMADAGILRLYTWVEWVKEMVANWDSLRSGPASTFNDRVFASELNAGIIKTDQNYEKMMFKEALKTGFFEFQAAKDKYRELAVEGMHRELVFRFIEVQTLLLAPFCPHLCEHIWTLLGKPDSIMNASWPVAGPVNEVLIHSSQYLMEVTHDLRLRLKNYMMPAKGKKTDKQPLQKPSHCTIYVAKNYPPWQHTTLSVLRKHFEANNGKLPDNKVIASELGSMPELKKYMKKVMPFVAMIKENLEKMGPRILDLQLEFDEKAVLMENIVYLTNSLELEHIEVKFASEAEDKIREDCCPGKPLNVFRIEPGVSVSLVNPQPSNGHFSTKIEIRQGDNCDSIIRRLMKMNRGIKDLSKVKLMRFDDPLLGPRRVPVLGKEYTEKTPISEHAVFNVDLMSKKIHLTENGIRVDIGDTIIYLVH

B1: GST (glutathione-S-transferase)-tagged human Ras-related GTP-binding protein D (RagD) (natural protein, UniProt Q9NQL2 1-400, looked up)
chain: MSQVLGKPQPQDEDDAEEEEEEDELVGLADYGDGPDSSDADPDSGTEEGVLDFSDPFSTEVKPRILLMGLRRSGKSSIQKVVFHKMSPNETLFLESTNKICREDVSNSSFVNFQIWDFPGQIDFFDPTFDYEMIFRGTGALIFVIDSQDDYMEALARLHLTVTRAYKVNTDINFEVFIHKVDGLSDDHKIETQRDIHQRANDDLADAGLEKIHLSFYLTSIYDHSIFEAFSKVVQKLIPQLPTLENLLNIFISNSGIEKAFLFDVVSKIYIATDSTPVDMQTYELCCDMIDVVIDISCIYGLKEDGAGTPYDKESTAIIKLNNTTVLYLKEVTKFLALVCFVREESFERKGLIDYNFHCFRKAIHEVFEVRMKVVKSRKVQNRLQKKKRATPNGTPRVLL
notes: also called GST-tagged RagD; source: laboratory stocks; purified
- binding result: binds
